Four molecules from paper PMC11014249 can be followed below.

The target in data set [1] is RccR from Pseudomonas aeruginosa (P. aeruginosa). The data set is described as follows: SEC. (SEC sorts molecules by how far they enter the pores of the column.)
The next data set deals with T1, RccR R152A (Pseudomonas aeruginosa, UniProt A0A071KWR3 1-293, R152A).
T1 sequence: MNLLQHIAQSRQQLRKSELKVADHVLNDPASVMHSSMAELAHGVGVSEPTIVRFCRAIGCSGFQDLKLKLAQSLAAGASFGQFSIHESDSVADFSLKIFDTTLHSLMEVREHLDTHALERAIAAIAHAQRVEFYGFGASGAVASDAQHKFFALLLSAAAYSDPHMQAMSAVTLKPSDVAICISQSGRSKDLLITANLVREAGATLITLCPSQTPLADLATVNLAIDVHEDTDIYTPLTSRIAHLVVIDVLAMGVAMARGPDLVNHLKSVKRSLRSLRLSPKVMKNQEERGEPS
Description: EMSA. In general terms: Mobility shift assays separate free from complexed probe on a gel.

The target in a further data set is T2, RccR H164A (Pseudomonas aeruginosa, UniProt A0A071KWR3 1-293, H164A).
T2 sequence: T1 sequence with A152R, H164A
Description: EMSA.

A further data set has as its target T3, RccR ΔSLR (Pseudomonas aeruginosa, UniProt A0A071KWR3 1-274+278-293, internal_change).
T3 sequence: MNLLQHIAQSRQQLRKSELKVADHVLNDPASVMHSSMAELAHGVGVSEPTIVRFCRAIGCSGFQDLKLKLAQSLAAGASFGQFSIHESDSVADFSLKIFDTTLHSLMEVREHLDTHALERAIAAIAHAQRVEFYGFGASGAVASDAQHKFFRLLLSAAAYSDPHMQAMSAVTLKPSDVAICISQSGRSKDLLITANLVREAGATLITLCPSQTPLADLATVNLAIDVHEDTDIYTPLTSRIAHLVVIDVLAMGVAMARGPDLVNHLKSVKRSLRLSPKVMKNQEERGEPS
Description: EMSA.

The next data set concerns the target T4, RccR K270A (Pseudomonas aeruginosa, UniProt A0A071KWR3 1-293, K270A).
T4 sequence: T1 sequence with A152R, K270A
The data set is described as follows: EMSA.

The next data set deals with T5, RccR SSSS (Pseudomonas aeruginosa, UniProt A0A071KWR3 1-293, S139A;S183A;S185A;S188A).
T5 sequence: T1 sequence with S139A, A152R, S183A, S185A, S188A
Description: EMSA.

A further data set addresses T6, RccR H148A (Pseudomonas aeruginosa, UniProt A0A071KWR3 1-293, H148A).
T6 sequence: T1 sequence with H148A, A152R
Description: EMSA.

Another data set concerns the target T7, RccR T231A (Pseudomonas aeruginosa, UniProt A0A071KWR3 1-293, T231A).
T7 sequence: T1 sequence with A152R, T231A
Description: EMSA.

Data set [2] addresses T8, RccR E200A (Pseudomonas aeruginosa, UniProt A0A071KWR3 1-293, E200A).
T8 sequence: T1 sequence with A152R, E200A
The data set is described as follows: EMSA.

Data set [3] concerns the target T8, RccR E200A. The data set is described as follows: EMSA. The source holds these as a separate data set.
For another data set, the target named is T9, RccR (PaRccR) (Pseudomonas aeruginosa, UniProt A0A071KWR3 1-293).
T9 sequence: T1 sequence with A152R
The data set is described as follows: EMSA.

Residue numbers refer to the chain shown, from its start. Read-outs that look alike come from different tables or passages of the source.

Broadly, the stoichiometry N is the number of molecules, sites or subunits per partner or assembly. In turn, “RccR from Pseudomonas aeruginosa (natural protein)” yielded a stoichiometry N in [1] of 4.

B1: PaceE (dsDNA)
DNA 1: ATCTGTAGTAAAACTACAAG
DNA 2: CTTGTAGTTTTACTACAGAT
Turning to B1, the binding result with RccR R152A, with RccR H164A, with RccR ΔSLR, with RccR K270A, with RccR SSSS and with RccR H148A was “binds” in each case. Also, the binding result with RccR T231A and with RccR E200A [2] was “binds” throughout.

B2: PaceA (dsDNA)
DNA 1: TCGTGTAGTAGTCTTGAAAAAACACTACAAAA
DNA 2: TTTTGTAGTGTTTTTTCAAGACTACTACACGA
As for B2, the binding result with RccR E200A [3] is recorded as “binds”.

B3: Variant1 (dsDNA)
DNA 1: ATCTGTAGTGGGACTACAAG
DNA 2: CTTGTAGTCCCACTACAGAT
In the case of B3, the binding result with RccR (PaRccR) is given as “binds”.
